Laboratory results as given in patent US20240228660A1 (IP2IPO INNOVATIONS, published 2024).
Changes are numbered by the printed parent chain. Like-named read-outs stand apart in the source and are kept apart here. Each block holds one binder with its values, some of them ahead of it.

Columns and labels:
[1] = target: T1, human full-length VWF (human, UniProt P04275 764-2813); test: SPR Biacore T200, antibody captured on Protein A chip, full-length VWF as analyte, single-cycle kinetics
Description: (§1) Antibodies were captured on Protein A sensor chip. The system was purged using running buffer (10 mM HEPES pH 7.4, 300 mM NaCl, 3 mM EDTA, 0.05% P20) and a series S Protein A chip was docked in the Biacore T200. The surface was conditioned with 10 mM glycine-HCl pH 1.5 regeneration solution (3 injections). Each antibody was diluted to ˜0.8 μg/ml in running buffer to capture ˜350 RU on flow cells 2, 3 and 4 (flow cell 1 used as in-line reference cell). Single-cycle kinetic analysis of human full-length VWF binding to antibodies was performed using the following parameters:

[2] = target: T1, human full-length VWF; test: SPR, Biacore T200, antibody captured on Protein A, full-length VWF as analyte, single-cycle kinetics
[3] = target: T1, human full-length VWF; test: as above; remark: listed apart in the source
Description: as §1

[4] = target: T1, human full-length VWF; test: as above; remark: listed apart in the source
Description: as §1

- Kd [1]: < 1000 pM
- Kd [2]: 18.7 pM
- koff [2]: 2.49e-06 s⁻¹
- kon [2]: 134000 M⁻¹ s⁻¹
B1: 4-H3_H1_L0 (antibody, human IgG1, kappa)
heavy: not shown
light: DIQMTQSPSSLSASVGDRVTITCLASEDIASGISWYQQKPGKAPKLLIYGASNLESGVPSRFSGSGSGTDFTLTISSLQPEDFATYYCLGGYSFSSNGLTFGGGTKVEIKTVAAPSVFIFPPSDEQLKSGTASVVCLLNNFYPREAKVQWKVDNALQSGNSQESVTEQDSKDSTYSLSSTLTLSKADYEKHKVYACEVTHQGLSSPVTKSFNRGEC
notes: humanised, human IgG1 kappa

- Kd [1]: < 1000 pM
- Kd [2]: 4.53 pM
- koff [2]: 1.36e-07 s⁻¹
- kon [2]: 29900 M⁻¹ s⁻¹
B2: 4-H3_H2_L1 (antibody, human IgG1, kappa)
heavy: not shown
light: B1 light with I2Y, F71Y
notes: humanised, human IgG1 kappa

- Kd [1]: < 1000 pM
- Kd [3]: 0.575 pM
- koff [3]: 5.95e-08 s⁻¹
- kon [3]: 103000 M⁻¹ s⁻¹
B3: 4-H3_H5_L1 (antibody, human IgG1, kappa)
heavy: not shown
light: B1 light with I2Y, F71Y
notes: humanised, human IgG1 kappa

- Kd [1]: < 1000 pM
- Kd [3]: 0.366 pM
- koff [3]: 4.93e-08 s⁻¹
- kon [3]: 135000 M⁻¹ s⁻¹
B4: 4-H3_H5_L0 (antibody, human IgG1, kappa)
heavy: not shown
light: B1 light
notes: humanised, human IgG1 kappa

- Kd [1]: < 1000 pM
- Kd [2]: 1.92 pM
- koff [2]: 1.45e-07 s⁻¹
- kon [2]: 75600 M⁻¹ s⁻¹
B5: 4-H3_H3_L0 (antibody, human IgG1, kappa, V domains shown)
VH: QVQLVESGGGVVQPGRSLRLSCAASGIDLTSNAMNWVRQAPGKGLEWIGGIYGHDTSYYAAWAKGRFTISRDNSKNTVYLQMNSLRAEDTAVYYCARGFIYFDIWGQGTLVTVSS
VL: DIQMTQSPSSLSASVGDRVTITCLASEDIASGISWYQQKPGKAPKLLIYGASNLESGVPSRFSGSGSGTDFTLTISSLQPEDFATYYCLGGYSFSSNGLTFGGGTKVEIKT
notes: humanised, human IgG1 kappa

- Kd [1]: < 1000 pM
- Kd [2]: 4.12 pM
- koff [2]: 1.52e-07 s⁻¹
- kon [2]: 36900 M⁻¹ s⁻¹
B6: 4-H3_H0_L1 rep (antibody, human IgG1, kappa, V domains shown)
VH: B5 VH with I27F, D28T, L29F, T30S, I48V, G49A, V78L
VL: B5 VL with I2Y, F71Y
notes: humanised, human IgG1 kappa

- Kd [1]: < 1000 pM
- Kd [2]: 19.3 pM
- koff [2]: 5.24e-07 s⁻¹
- kon [2]: 27100 M⁻¹ s⁻¹
B7: 4-H3_H4_L0 (antibody, human IgG1, kappa, V domains shown)
VH: B5 VH with I48V, G49A, V78L, V92T, Y94F
VL: B5 VL
notes: humanised, human IgG1 kappa

- Kd [1]: < 1000 pM
- Kd [2]: 0.14 pM
- koff [2]: 6.25e-09 s⁻¹
- kon [2]: 44500 M⁻¹ s⁻¹
B8: 4-H3_H4_L1 (antibody, human IgG1, kappa, V domains shown)
VH: B5 VH with I48V, G49A, V78L, V92T, Y94F
VL: B5 VL with I2Y, F71Y
notes: humanised, human IgG1 kappa

- Kd [1]: < 1000 pM
- Kd [2]: 13.8 pM
- koff [2]: 4.27e-07 s⁻¹
- kon [2]: 31000 M⁻¹ s⁻¹
B9: 4-H3_H1_L1 (antibody, human IgG1, kappa)
heavy: not shown
light: B1 light with I2Y, F71Y
notes: humanised, human IgG1 kappa

- Kd [1]: < 1000 pM
- Kd [2]: 1.49 pM
- koff [2]: 1.72e-07 s⁻¹
- kon [2]: 115000 M⁻¹ s⁻¹
B10: 4-H3_H3_L1 (antibody, human IgG1, kappa, V domains shown)
VH: B5 VH
VL: B5 VL with I2Y, F71Y
notes: humanised, human IgG1 kappa

- Kd [1]: < 1000 pM
- Kd [2]: 27.3 pM
- koff [2]: 9.13e-07 s⁻¹
- kon [2]: 33500 M⁻¹ s⁻¹
B11: 4-H3_H2_L0 (antibody, human IgG1, kappa)
heavy: not shown
light: B1 light
notes: humanised, human IgG1 kappa

- Kd [1]: < 1000 pM
- Kd [2]: 38 pM
- koff [2]: 1.13e-05 s⁻¹
- kon [2]: 298000 M⁻¹ s⁻¹
B12: 1-D5_H2_L1 (antibody, human IgG1, kappa, V domains shown)
VH: QQQLVESGGGVVQPGRSLRLSCAASGFSLNNYIMGWVRQAPGKGLEYIGIISTGGSTYYASWAKGRFTISRDSNTMYLQMNSLRAEDTATYFCARGGSSAGAGFNIWGQGTLVTVSS
VL: DIQMTQSPSSLSASVGDRVTITCQASQSINSGLAWYQQKPGKAPKRLIYKASTLASGVPSRFSGSGSGTDFTLTISSLQPEDFATYYCQSYHYISANGATFGGGTKVEIKT
notes: humanised, human IgG1 kappa

- Kd [1]: < 1000 pM
- Kd [2]: 0.0946 pM
- koff [2]: 6.72e-09 s⁻¹
- kon [2]: 71000 M⁻¹ s⁻¹
B13: 1-D5_H1_L1 (antibody, human IgG1, kappa, V domains shown)
VH: QVQLVESGGGVVQPGRSLRLSCAASGFSLNNYIMGWVRQAPGKGLEWVAIISTGGSTYYASWAKGRFTISRDNSKNTLYLQMNSLRAEDTAVYYCARGGSSAGAGFNIWGQGTLVTVSS
VL: B12 VL
notes: humanised, human IgG1 kappa

- Kd [1]: < 1000 pM
- Kd [2]: 0.15 pM
- koff [2]: 1.13e-08 s⁻¹
- kon [2]: 75200 M⁻¹ s⁻¹
B14: 1-D5_H0_L0 (antibody, human IgG1, kappa, V domains shown)
VH: B13 VH with S28T, L29F, N30S
VL: B12 VL with R46L
notes: humanised, human IgG1 kappa

- Kd [1]: < 1000 pM
- Kd [2]: 7.66 pM
- koff [2]: 1.06e-06 s⁻¹
- kon [2]: 138000 M⁻¹ s⁻¹
B15: 1-D5_H2_L0 (antibody, human IgG1, kappa, V domains shown)
VH: B12 VH
VL: B12 VL with R46L
notes: humanised, human IgG1 kappa

- Kd [1]: < 1000 pM
- Kd [2]: 1.6 pM
- koff [2]: 1.25e-07 s⁻¹
- kon [2]: 77900 M⁻¹ s⁻¹
B16: 1-D5_H1_L0 (antibody, human IgG1, kappa, V domains shown)
VH: B13 VH
VL: B12 VL with R46L
notes: humanised, human IgG1 kappa

- Kd [1]: < 1000 pM
- Kd [2]: 1.77 pM
- koff [2]: 2.99e-07 s⁻¹
- kon [2]: 169000 M⁻¹ s⁻¹
B17: 1-D5_H0_L1 (antibody, human IgG1, kappa, V domains shown)
VH: B13 VH with S28T, L29F, N30S
VL: B12 VL
notes: humanised, human IgG1 kappa

- Kd [1]: < 1000 pM
- Kd [4]: 11.2 pM
- koff [4]: 8.74e-07 s⁻¹
- kon [4]: 78100 M⁻¹ s⁻¹
B18: 3-H9_H2_L0 (antibody, human IgG1, kappa, V domains shown)
VH: QQLVESGGGVVQPGRSLRLSCAASGFSLSNYDMSWVRQAPGKGLEWIGSIHAIGITYYANWAEGRFTISRDKNTVYLQMNSLRAEDTATYFCARGLVDLNMWGQGTLVTVSS
VL: DIQMTQSPSSLSASVGDRVTITCQSSQSVYSNNLLSWYQQKPGKAPKLLIYDASTLESGVPSRFSGSGSGTDFTLTISSLQPEDFATYYCQGSYYSSGWYNTFGGGTKVEIKT
notes: humanised, human IgG1 kappa

- Kd [1]: < 1000 pM
- Kd [4]: 15.6 pM
- koff [4]: 2.84e-07 s⁻¹
- kon [4]: 18200 M⁻¹ s⁻¹
B19: 3-H9_H1_L0 (antibody, human IgG1, kappa, V domains shown)
VH: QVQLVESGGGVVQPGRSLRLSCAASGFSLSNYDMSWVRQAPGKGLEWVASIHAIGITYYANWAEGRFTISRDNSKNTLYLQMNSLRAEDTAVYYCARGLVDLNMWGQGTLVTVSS
VL: B18 VL
notes: humanised, human IgG1 kappa

- Kd [1]: < 1000 pM
- Kd [4]: 1.05 pM
- koff [4]: 8.46e-08 s⁻¹
- kon [4]: 80900 M⁻¹ s⁻¹
B20: 3-H9_H0_L0 (antibody, human IgG1, kappa, V domains shown)
VH: QVQLVESGGGVVQPGRSLRLSCAASGFTFSNYDMSWVRQAPGKGLEWVASIHAIGITYYANWAEGRFTISRDNSKNTLYLQMNSLRAEDTAVYYCARGLVDLNMWGQGTLVTVSS
VL: B18 VL
notes: humanised, human IgG1 kappa
